# Test results: patent US20230212587A1, “Mutant Hydroxyphenylpyruvate Dioxygenase Polypeptide, Encoding Gene Thereof and Use Therefor” (Beijing Dabeinong Biotechnology Co., Ltd., priority 2019, published 2023)
# Changes are numbered by the printed parent chain. Names and notes keep the numbering of the source.
# B1: CaHPPD-02: native Cicer arietinum HPPD, SEQ ID NO: 81 (protein, listed as Cicer arietinum)
# chain: MGTIETQTGFKLVGFNNFVRTNPKSDRFKVKRFHHVEFWCPDATNTARRFSWGLGMPIVAKSDLSTGNQTHASYLLRSGDLNFLFTAAYSPSISLSAPHPTASIPSFSAPTSFAFSASHGLGVRAVAIEVDDAEFAYTTSVNHGAIPSSPPVVLDNRVKLAEVQLYGDVVLRYVSYNDPIETSNPNPNHWFLPGFEPVEETSSNQSIDFGIQRLDHAVGNVPELSSALNYVKQFTGFHEFAEFTAEDVGTSESGLNSTVLANNEETVLLPMNEPVYGTKRKSQIQTYLEHNEGAGLQHLALMSNDIFKTLREMRKRSGIGGFEFMPSPPPTYYSNLKKRVGDVLNDEQIKECEELGILVDKDDQGTLLQIFTKPVGDRPTIFIEIIQRVGCMLKDDEGKEYQKGGCGGFGKGNFSELFKSIEEYEKTLEIKRTA
# modifications: CaHPPD Amino Acid Sequence
# B2: CaHPPD-F372A-02: Cicer arietinum HPPD mutant F372A, SEQ ID NO: 84 (protein)
# chain: B1 chain with F371A
# modifications: CaHPPDm-F372A Amino Acid Sequence
# B3: BnHPPD-02: native Brassica napus HPPD, SEQ ID NO: 87 (protein, listed as Brassica napus)
# chain: MGHENAAVCETQQHDDAASPGFKLVGFSKFVRKNPKSDKFKVKRFHHIEFWCGDATNVSRRFSWGLGMRFSAKSDLSTGNMVHASYLLTSGDLRFLFTAPYSPSLSAGEAQPSATASIPSFDHASCRSFFSSHGLGVRAVAIEVEDAESAFSISVANGAVPSSPPNVLNGAVTIAEVKLYGDVVLRYVSYYNGTVSFLPGFESVDDTSSFPLDYGIRRLDHAVGNVPELGPALTYLAGFTGFHQFAEFTADDVGTAESGLNSAVLANNDEMVLLPINEPVHGTKRKSQIQTFLEHNEGAGLQHLALMSEDIFRTLREMRKRSGVGGFDFMPSPPPTYYKNLKKRVGDVLSEEQIEECEELGILVDRDDQGTLLQIFTKPLGDRPTIFIEIIQRVGCMKRDEEGKVYQSGGCGGFGKGNFSELFKSIEEYEKTLEAKQLVG
# modifications: BnHPPD Amino Acid Sequence
# B4: BnHPPDm-F372A-02: Brassica napus HPPD mutant F372A, SEQ ID NO: 90 (protein)
# chain: B3 chain with F376A
# modifications: BnHPPDm-F372A Amino Acid Sequence
# B5: HaHPPD-02: native Helianthus annuus HPPD, SEQ ID NO: 93 (protein, listed as Helianthus annuus)
# chain: MGTEATVAAVVAGDESDHPTSAFKLVGFKNFIRTNPMSDKFTVKNFHHIEFWCSDATNTARRFSWGLGMPIIFKSDLSTGNSTHASYLLRSGHLNFLFTAPYSPSISPTTTTASIPTFSHSASRHFTATHGLAVRAIAVEVEDAETAFAVSVANGAKPSSPPVTLGHNDVVLSEVKLYGDVVLRYVSYKNNTNNNNNNDNDNYIFLPGFEAMDKTSSFQELDYGIRRLDHAVGNVPELAPAVDYVKSFTGFHEFAEFTAEDVGTSESGLNSVVLACNSEMVLIPMNEPVYGTKRKSQIQTYLEHNEGAGVQHLALASEDIFRTLREMRKRSGVGGFEFMPSPPPTYYRNLKSRAGDVLSDEQIKECEELGILVDRDDQGTLLQIFTKPVGDRPTIFIEIIQRVGCMVKDDEGKVQQKAGCGGFGKGNFSELFKSIEEYEKTLEARSTTAAA
# modifications: HaHPPD Amino Acid Sequence
# B6: GmHPPDm-F372A-02: Glycine max HPPD mutant F372A, SEQ ID NO: 78 (protein)
# chain: MPMYTPSLSAPSSNHIQPSVTLPLYITTTKLNLKQQHHTTPMPIPMCNEIQAQAQAQAQPGFKLVGFKNFVRTNPKSDRFQVNRFHHIEFWCTDATNASRRFSWGLGMPIVAKSDLSTGNQIHASYLLRSGDLSFLFSAPYSPSLSAGSSAASSASIPSFDAATCLAFAAKHGFGVRAIALEVADAEAAFSASVAKGAEPASPPVLVDDRTGFAEVRLYGDVVLRYVSYKDAAPQAPHADPSRWFLPGFEAAASSSSFPELDYGIRRLDHAVGNVPELAPAVRYLKGFSGFHEFAEFTAEDVGTSESGLNSVVLANNSETVLLPLNEPVYGTKRKSQIETYLEHNEGAGVQHLALVTHDIFTTLREMRKRSFLGGFEFMPSPPPTYYANLHNRAADVLTVDQIKQCEELGILVDRDDQGTLLQIATKPVGDRPTIFIEIIQRIGCMVEDEEGKVYQKGACGGFGKGNFSELFKSIEEYEKTLEAKRTA
# modifications: GmHPPDm-F372A Amino Acid Sequence
# B7: ZmHPPD-02: native Zea mays HPPD, SEQ ID NO: 17 (protein)
# chain: MPPTPTAAAAGAAVAAASAAEQAAFRLVGHRNFVRFNPRSDRFHTLAFHHVELWCADAASAAGRFSFGLGAPLAARSDLSTGNSAHASLLLRSGSLSFLFTAPYAHGADAATAALPSFSAAAARRFAADHGLAVRAVALRVADAEEAFRTSVAAGARPAFGPVDLGRGFRLAEVELYGDVVLRYVSYPDGAAGEPFLPGFEGVASPGAADYGLSRFDHIVGNVPELAPAAAYFAGFTGFHEFAEFTTEDVGTAESGLNSMVLANNSENVLLPLNEPVHGTKRRSQIQTFLDHHGGPGVQHMALASDDVLRTLREMQARSAMGGFEFMAPPTSDYYDGVRRRAGDVLTEAQIKECQELGVLVDRDDQGVLLQIFPKPVGDRPTLFLEIIQRIGCMERDEKGQEYQKGGCGGFGKGNFSQLFKSIEDYEKSLEAMQAAAAATAQGS
# modifications: Zea mays; ZmHPPD Amino Acid Sequence (Zea mays)
# Test system: Arabidopsis thaliana T1 plants
# Assay: Topramezone tolerance of transgenic Arabidopsis thaliana T1 plants (pesticide damage grade by bleached leaf area, score, resistance evaluation)
# Type: in vivo
# Details: HPPDs from different species; number of plants (of 16) in this grade; topramezone 25 g ai/ha (1x), 7 DAT
# In short: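 Herbicide tolerance was judged per plant on a bleaching scale (grade 0 no bleaching to grade 3 fully bleached) 7 DAT. Topramezone doses were 0, 25, 50 and 100 g ai/ha on 18-day-old T1 and wild-type plants.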
Molecule,Classification and statistics of pesticide damage grade Grade 0,Classification and statistics of pesticide damage grade Grade 1,Classification and statistics of pesticide damage grade Grade 2,Classification and statistics of pesticide damage grade Grade 3
B1,0,0,0,16
B2,0,13,3,0
B3,0,0,0,16
B4,0,4,12,0
B5,0,0,0,16
B6,0,12,4,0
B7,0,0,0,16

# Same assay, conditions: HPPDs from different species; number of plants (of 16) in this grade; topramezone 100 g ai/ha (4x), 7 DAT
Molecule,Classification and statistics of pesticide damage grade Grade 0,Classification and statistics of pesticide damage grade Grade 1,Classification and statistics of pesticide damage grade Grade 2,Classification and statistics of pesticide damage grade Grade 3
B1,0,0,0,16
B2,0,0,0,16
B3,0,0,0,16
B4,0,0,0,16
B5,0,0,0,16
B6,0,0,0,16
B7,0,0,0,16

# Same assay, conditions: HPPDs from different species; score for pesticide damage 0-100; topramezone 25 g ai/ha (1x), 7 DAT
row,Molecule,Scores
1,B1,100
2,B2,40
3,B3,100
4,B4,58
5,B5,100
6,B6,42
7,B7,100

# Same assay, conditions: HPPDs from different species; score for pesticide damage 0-100; topramezone 100 g ai/ha (4x), 7 DAT
row,Molecule,Scores
1,B1,100
2,B2,100
3,B3,100
4,B4,100
5,B5,100
6,B6,100
7,B7,100

# Same assay, conditions: HPPDs from different species; topramezone 25 g ai/ha (1x), 7 DAT
row,Molecule,Resistance evaluation
1,B1,non-resistant (non-resistant plants (scores 68-100))
2,B2,poorly resistant (poorly resistant plants (scores 34-67))
3,B3,non-resistant (non-resistant plants (scores 68-100))
4,B4,poorly resistant (poorly resistant plants (scores 34-67))
5,B5,non-resistant (non-resistant plants (scores 68-100))
6,B6,poorly resistant (poorly resistant plants (scores 34-67))
7,B7,non-resistant (non-resistant plants (scores 68-100))

# Same assay, conditions: HPPDs from different species; topramezone 100 g ai/ha (4x), 7 DAT
row,Molecule,Resistance evaluation
1,B1,non-resistant (non-resistant plants (scores 68-100))
2,B2,non-resistant (non-resistant plants (scores 68-100))
3,B3,non-resistant (non-resistant plants (scores 68-100))
4,B4,non-resistant (non-resistant plants (scores 68-100))
5,B5,non-resistant (non-resistant plants (scores 68-100))
6,B6,non-resistant (non-resistant plants (scores 68-100))
7,B7,non-resistant (non-resistant plants (scores 68-100))
